Substrate in data set [1]: C=C(O[C@@H]1C=C(C(=O)O)C=C[C@H]1O)C(=O)O
As to the kind of experiment: coupled fluorimetric assay with PchB (salicylate formation). The class given is biochemical, Arabidopsis thaliana. Particulars: 100 mM Tris-HCl pH 7.7, 10 mM MgCl2, 30°C, 1 µM His6-PchB, 100 nM enzyme. An excerpt: coupled fluorimetric assay with PchB (salicylate formation) on AtICS1 (His6-AtICS1, ICS1)

Substrate in data set [2]: C=C(O[C@@H]1C=C(C(=O)O)C=C[C@H]1O)C(=O)O
Described as above. The class given is biochemical, Arabidopsis thaliana. The settings on record: 100 mM Tris-HCl pH 7.7, 10 mM MgCl2, 30°C, 1 µM His6-PchB, 100 nM enzyme. The text has this: coupled fluorimetric assay with PchB (salicylate formation) on AtICS2 (His6-AtICS2, ICS2)
The source holds these as a separate data set.

For two proteins, Km, kcat and kcat/Km results are on record in publication PMC5408348, “The biochemical properties of the two Arabidopsis thaliana isochorismate synthases” (Biochemical Journal, 2017).

B1: AtICS1 (His6-AtICS1, ICS1) (Arabidopsis thaliana) (protein)
chain: MNGCDGDFKTPLGTVETRTMTAVLSPAAATERLISAVSELKSQPPSFSSGVVRLQVPIDQQIGAIDWLQAQNEIQPRCFFSRRSDVGRPDLLLDLANENGNGNGNGTVSSDRNLVSVAGIGSAVFFRDLDPFSHDDWRSIRRFLSSTSPLIRAYGGMRFDPNGKIAVEWEPFGAFYFSVPQVEFNEFGGSSMLAATIAWDDELSWTLENAIEALQETMLQVSSVVMKLRNRSLGVSVLSKNHVPTKGAYFPAVEKALEMINQKSSPLNKVVLARNSRIITDTDIDPIAWLAQLQREGHDAYQFCLQPPGAPAFIGNTPERLFQRTQLGVCSEALAATRPRAASSARDMEIERDLLTSPKDDLEFSIVRENIREKLNGICDRVVVKPQKTVRKLARVQHLYSQLAGRLTKEDDEYKILAALHPTPAVCGLPAEEARLLIKEIESFDRGMYAGPIGFFGGEESEFAVGIRSALVEKGLGALIYAGTGIVAGSDPSSEWNELDLKISQFTKSIEYEATTSLQAIN
notes: transit peptide removed (forward primer encodes MNGCDG start), N-terminal His6 tag from pET-28a TEV, no tag cleavage described; E. coli Rosetta DE3 pLysS; ~60 kDa; monomer
Broadly, the Km is the substrate concentration at which the rate is half of its maximum. A word on the kcat: it is the number of substrate molecules converted per active site and unit of time at saturation. The term kcat/Km denotes the second-order rate constant that governs catalysis at low substrate concentration. Consider B1, for which, in data set [1], the Km is on record as 34.3 ± 3.7 µM, the kcat turned out to be 0.635 ± 0.025 s⁻¹ and the kcat/Km worked out at 18500 ± 217 M⁻¹ s⁻¹.

B2: AtICS2 (His6-AtICS2, ICS2) (Arabidopsis thaliana) (protein)
chain: MNGCEADHKAPLGTVETRTLSTVPSPAAATERLITAVSDLKSQPPPFSSGIVRLQVPIEQKIGAIDWLHAQNEILPRSFFSRRSDSGRPDLLQDFSSDNGSSDHNPVSVAGIGSAVFFRDLDPFSHDDWRSIRRFLSSKSPLIRAYGGLRFDPTGKIAVEWEHFGSFYFTVPQVEFDEFGGSSMLAATVAWDNELSWTLENAIEALQETMLQVSSVIMRLRRESLGVIVVSKNHVPSEGAYYPAVNNALEIIKDKHSPLSKVVLARSSRIITDTDIDPIAWLARLQCEGQDAYQFCLQPPGAPAFIGNTPERLFHRKHLGVCSEALAATRPRGDSKVREMEIERDLLTSPKDDLEFSIVRENIREKLKTICDRVVVKPHKSVRKLARVQHLYSQLAGQLKREDDEFNILTALHPTPAVCGCPVEEARLLIKQIESFDRGMYAGPIGFFGGGESEFSVGIRSALVEKGLGALIYAGTGIVSGSNPSSEWNELELKISQFTKSLEHESALQPIN
notes: transit peptide removed (forward primer encodes MNGCEA start), N-terminal His6 tag from pET-28a TEV, no tag cleavage described; E. coli Rosetta DE3 pLysS; ~60 kDa; monomer
With B2, in data set [2], the Michaelis-Menten constant (Km) is 28.8 ± 6.9 µM, the kcat turned out to be 0.283 ± 0.02 s⁻¹ and the catalytic efficiency (kcat/Km) was 9830 ± 1030 M⁻¹ s⁻¹.
